Substitutions are numbered along the chain they refer to. Numbers in names are those of the source.
B1:  (antibody, V domains shown)
VH: EVQLVESGGGLVKPGGSLRLSCAASGFTFSNAWMSWVRQAPGKGLEWVGRIKSKTDGGTIDYAAPVKGRFTISRDDSKNTVYLQMTSLKTEDTAVYYCTTYTEDMRYFDWLLRGGETFDYWGQGTLVTVSS
VL: DIRLTQSPSSLSASVGDRVTITCRASQYISTYLNWYQQKPGKAPKLLIYAAYNLQSGVPSRFSGSRFGTDFSLTISSLQPEDFATYHCQQSYSTPGRYTFGQGTKVEIK
notes: also called H27Q/S52Y/G66R-LC variant
B2:  (antibody, V domains shown)
VH: B1 VH
VL: B1 VL with Q27H, A50Y, L54R, R66G
notes: also called A50Y/S52Y/L54R-LC variant

Target: Sudan virus (SUDV) glycoprotein GP (Sudan ebolavirus, strain  for …, UniProt Q7T9D9)
Assay: SPR
Conditions: both partners purified

| Binder | Kd [nM] |
| --- | --- |
| B1 | 0.349 |
| B2 | 0.248 |

From paper PMC13006735 (Research, 2026)
